What was measured:
[1] = biological target: Human eotaxin (human) (UniProt P51671); assay: cell-based or functional assay
[2] = biological target: Human eotaxin (human) (UniProt P51671); assay: not stated (summary sentence in the introduction)
[3] = biological target: Human eotaxin (human) (UniProt P51671); assay: saturation binding of [125I]eotaxin to coated CAT-212 on a Flash Plate, Scatchard plot
[4] = biological target: Human eotaxin (human) (UniProt P51671); assay: Flash Plate scintillation competition: unlabelled CAT-212 against coated CAT-212 for [125I]eotaxin; mean of 4 estimates

Human eotaxin (human), sequence (P51671 24-97 limits assumed): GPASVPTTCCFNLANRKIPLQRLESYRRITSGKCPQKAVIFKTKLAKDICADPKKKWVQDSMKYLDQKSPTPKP

B1: CAT-212 (scFv, part only; not given: scFv linker and myc/His tag, V domains shown, not shown: another chain or arm of the molecule; small tags and cut ends)
VH: QVQLVQSGGGVVQPGRSLRLSCAASGFTFSSYGMHWVRQAPGKGLEWVAVISYDGSIKHYADSVKGRFTISRDNSKNTLYLQMNSLRTDDTAVYYCAGDTDYGDIDPWGQGTMVTVSS
VL: DIQMTQSPSSVSASVGDRVTITCRASQDISSWLAWYQQKPGKAPKLLIYAASSLQSGVPSRFSGSGSGTDFTLTISSLQPEDFATYYCQQASSFPSITFGQGTRLEIK
B1 gave an IC50, inhibition of eotaxin-induced Ca2+ flux in CCR3 cells (FLIPR, area under the curve) [1] of 5 nM, an IC50, inhibition of eotaxin-mediated chemotaxis of CCR3-transfected L1.2 cells [1] of 0.65 nM and an improvement in chemotaxis neutralisation potency over scFv 3G3 [1] of 1000 fold. It also gave a Kd [2] of 0.015 nM, a Kd [3] of 0.146 nM and an IC50 [4] of 0.0425 nM.

From patent publication US20020098523A1
